B1: DhaA.WT: wild-type Rhodococcus rhodochrous dehalogenase (DhaA), generally GST at the N-terminus and FLAG at the C-terminus (protein, UniProt P0A3G2 1-293, looked up)
Haloalkane dehalogenase: MSEIGTGFPFDPHYVEVLGERMHYVDVGPRDGTPVLFLHGNPTSSYLWRNIIPHVAPSHRCIAPDLIGMGKSDKPDLDYFFDDHVRYLDAFIEALGLEEVVLVIHDWGSALGFHWAKRNPERVKGIACMEFIRPIPTWDEWPEFARETFQAFRTADVGRELIIDQNAFIEGALPKCVVRPLTEVEMDHYREPFLKPVDREPLWRFPNELPIAGEPANIVALVEAYMNWLHQSPVPKLLFWGTPGVLIPPAEAARLAESLPNCKTVDIGPGLHYLQEDNPDLIGSEIARWLPAL
modifications: N-terminal GST, C-terminal FLAG tag
B2: DhaA.H272Q: DhaA mutant, His272 replaced with Gln (protein, UniProt P0A3G2 1-293, looked up, variant H272Q)
Haloalkane dehalogenase: MSEIGTGFPFDPHYVEVLGERMHYVDVGPRDGTPVLFLHGNPTSSYLWRNIIPHVAPSHRCIAPDLIGMGKSDKPDLDYFFDDHVRYLDAFIEALGLEEVVLVIHDWGSALGFHWAKRNPERVKGIACMEFIRPIPTWDEWPEFARETFQAFRTADVGRELIIDQNAFIEGALPKCVVRPLTEVEMDHYREPFLKPVDREPLWRFPNELPIAGEPANIVALVEAYMNWLHQSPVPKLLFWGTPGVLIPPAEAARLAESLPNCKTVDIGPGLQYLQEDNPDLIGSEIARWLPAL
B3: DhaA.H272G: DhaA mutant, His272 replaced with Gly (protein, UniProt P0A3G2 1-293, looked up, variant H272G)
Haloalkane dehalogenase: MSEIGTGFPFDPHYVEVLGERMHYVDVGPRDGTPVLFLHGNPTSSYLWRNIIPHVAPSHRCIAPDLIGMGKSDKPDLDYFFDDHVRYLDAFIEALGLEEVVLVIHDWGSALGFHWAKRNPERVKGIACMEFIRPIPTWDEWPEFARETFQAFRTADVGRELIIDQNAFIEGALPKCVVRPLTEVEMDHYREPFLKPVDREPLWRFPNELPIAGEPANIVALVEAYMNWLHQSPVPKLLFWGTPGVLIPPAEAARLAESLPNCKTVDIGPGLGYLQEDNPDLIGSEIARWLPAL
B4: DhaA.H272A: DhaA mutant, His272 replaced with Ala (protein, UniProt P0A3G2 1-293, looked up, variant H272A)
Haloalkane dehalogenase: MSEIGTGFPFDPHYVEVLGERMHYVDVGPRDGTPVLFLHGNPTSSYLWRNIIPHVAPSHRCIAPDLIGMGKSDKPDLDYFFDDHVRYLDAFIEALGLEEVVLVIHDWGSALGFHWAKRNPERVKGIACMEFIRPIPTWDEWPEFARETFQAFRTADVGRELIIDQNAFIEGALPKCVVRPLTEVEMDHYREPFLKPVDREPLWRFPNELPIAGEPANIVALVEAYMNWLHQSPVPKLLFWGTPGVLIPPAEAARLAESLPNCKTVDIGPGLAYLQEDNPDLIGSEIARWLPAL
B5: BlaZ.N170Q (protein, UniProt P00807 25-281, looked up, variant N170Q)
Beta-lactamase: KELNDLEKKYNAHIGVYALDTKSGKEVKFNSDKRFAYASTSKAINSAILLEQVPYNKLNKKVHINKDDIVAYSPILEKYVGKDITLKALIEASMTYSDNTANNKIIKEIGGIKKVKQRLKELGDKVTNPVRYEIELNYYSPKSKKDTSTPAAFGKTLNKLIANGKLSKEQKKFLLDLMLNNKSGDTLIKDGVPKDYKVADKSGQAITYASRNDVAFVYPKGQSEPIVLVIFTNKDNKSDKPNDKLISETAKSVMKEF
B6: DhaA.H272F H11: first generation DhaA.H272F mutant with K175M and C176G (protein, UniProt P0A3G2 1-293, looked up, variant K175M C176G H272F)
Haloalkane dehalogenase: MSEIGTGFPFDPHYVEVLGERMHYVDVGPRDGTPVLFLHGNPTSSYLWRNIIPHVAPSHRCIAPDLIGMGKSDKPDLDYFFDDHVRYLDAFIEALGLEEVVLVIHDWGSALGFHWAKRNPERVKGIACMEFIRPIPTWDEWPEFARETFQAFRTADVGRELIIDQNAFIEGALPMGVVRPLTEVEMDHYREPFLKPVDREPLWRFPNELPIAGEPANIVALVEAYMNWLHQSPVPKLLFWGTPGVLIPPAEAARLAESLPNCKTVDIGPGLFYLQEDNPDLIGSEIARWLPAL
B7: DhaA.H272F YL: DhaA.H272F based mutant with Y273L (protein, UniProt P0A3G2 1-293, looked up, variant H272F Y273L)
Haloalkane dehalogenase: MSEIGTGFPFDPHYVEVLGERMHYVDVGPRDGTPVLFLHGNPTSSYLWRNIIPHVAPSHRCIAPDLIGMGKSDKPDLDYFFDDHVRYLDAFIEALGLEEVVLVIHDWGSALGFHWAKRNPERVKGIACMEFIRPIPTWDEWPEFARETFQAFRTADVGRELIIDQNAFIEGALPKCVVRPLTEVEMDHYREPFLKPVDREPLWRFPNELPIAGEPANIVALVEAYMNWLHQSPVPKLLFWGTPGVLIPPAEAARLAESLPNCKTVDIGPGLFLLQEDNPDLIGSEIARWLPAL
B8: DhaA.H272F YM: DhaA.H272F based mutant with Y273M (protein, UniProt P0A3G2 1-293, looked up, variant H272F Y273M)
Haloalkane dehalogenase: MSEIGTGFPFDPHYVEVLGERMHYVDVGPRDGTPVLFLHGNPTSSYLWRNIIPHVAPSHRCIAPDLIGMGKSDKPDLDYFFDDHVRYLDAFIEALGLEEVVLVIHDWGSALGFHWAKRNPERVKGIACMEFIRPIPTWDEWPEFARETFQAFRTADVGRELIIDQNAFIEGALPKCVVRPLTEVEMDHYREPFLKPVDREPLWRFPNELPIAGEPANIVALVEAYMNWLHQSPVPKLLFWGTPGVLIPPAEAARLAESLPNCKTVDIGPGLFMLQEDNPDLIGSEIARWLPAL
B9: DhaA.H272F YC: DhaA.H272F based mutant with Y273C (protein, UniProt P0A3G2 1-293, looked up, variant H272F Y273C)
Haloalkane dehalogenase: MSEIGTGFPFDPHYVEVLGERMHYVDVGPRDGTPVLFLHGNPTSSYLWRNIIPHVAPSHRCIAPDLIGMGKSDKPDLDYFFDDHVRYLDAFIEALGLEEVVLVIHDWGSALGFHWAKRNPERVKGIACMEFIRPIPTWDEWPEFARETFQAFRTADVGRELIIDQNAFIEGALPKCVVRPLTEVEMDHYREPFLKPVDREPLWRFPNELPIAGEPANIVALVEAYMNWLHQSPVPKLLFWGTPGVLIPPAEAARLAESLPNCKTVDIGPGLFCLQEDNPDLIGSEIARWLPAL
B10: DhaA.H272F: DhaA mutant, catalytic His272 replaced with Phe (protein, UniProt P0A3G2 1-293, looked up, variant H272F)
Haloalkane dehalogenase: MSEIGTGFPFDPHYVEVLGERMHYVDVGPRDGTPVLFLHGNPTSSYLWRNIIPHVAPSHRCIAPDLIGMGKSDKPDLDYFFDDHVRYLDAFIEALGLEEVVLVIHDWGSALGFHWAKRNPERVKGIACMEFIRPIPTWDEWPEFARETFQAFRTADVGRELIIDQNAFIEGALPKCVVRPLTEVEMDHYREPFLKPVDREPLWRFPNELPIAGEPANIVALVEAYMNWLHQSPVPKLLFWGTPGVLIPPAEAARLAESLPNCKTVDIGPGLFYLQEDNPDLIGSEIARWLPAL

Key:
[1] = pH-indicator dye assay of hydrolysis of Cl-alkanes by DhaA (WT or mutant); type: biochemical; conditions: 0.1 mg/ml of enzyme, 10 mM substrate, pH 7.0-8.2
Text: To study the effect of a point mutation on the activity of DhaA (WT or mutant) hydrolysis of Cl-alkanes, a pH-indicator dye system as described by Holloway et al. (1998) was employed.

[2] = Precipitation of DhaA.WT and mutants with (NH4)2SO4; type: physicochemical; conditions: 2 hours, 4° C.
Protocol: Aliquots of the supernatant obtained from E. coli expressing DhaA (WT or one of the mutants) were treated with increasing concentrations of (NH4)2SO4. The proteins were exposed to each (NH4)2SO4 concentration for 2 hours (4° C.), pelleted by centrifugation, dialyzed overnight against buffer A, and resolved on SDS-PAGE.

[3] = Hydrolysis of FAP by GST-BlaZ (WT or mutants); type: biochemical; conditions: up to 60 minutes of co-incubation
Protocol: The chromogenic substrate 6-β-[(Furylacryloyl)amido]penicillanic acid triethylamine salt (FAP) was purchased from Calbiochem (La Jolla, Calif.). […] All assays were performed at 25° C. in 0.1 M potassium phosphate buffer at pH 6.8.

[4] = In vivo stability of DhaA mutants in transiently transfected CHO-K1 cells; type: cell-based; conditions: 12, 24 and 48 hours post-transfection
Protocol: (§1) Proteins (2-10 μl/lane) were resolved on SDS-PAGE (4-20% gradient gels).

[5] = Thermostability analysis of purified DhaA mutants (residual labeling activity, FP); type: physicochemical; conditions: for thermostability (residual activity): 60 minute incubations at various temperature
Protocol: The thermostability profiles of the DhaA mutants were determined by measuring the residual activity of the purified proteins following 15, 30 or 60 minute incubations at 4, 22, 30, 37, 42, 50 or 60° C. The FP assay was performed at room temperature (about 25° C.). […] For each clone, the labeling rate (slope of the linear range) was calculated for each condition. The rate observed following a 15 minute incubation at 4° C. was arbitrarily assigned as 100% activity. The residual activity (%) was calculated for each condition. To determine stability, for each incubation time, the % of residual activity was plotted against the incubation temperatures. To calculate half-life, for each incubation temperature, the % of residual activity was plotted against the incubation time. The time where 50% activity was lost was extrapolated from the graph.

[6] = In vivo labeling of DhaA mutants expressed in CHO-K1 cells (cell-to-gel analysis); type: cell-based; conditions: 5 μM substrate
Protocol: as §1

[7] = DhaA capture using immobilized biotin chloroalkane substrates (streptavidin plates, ELISA-type); type: binding; conditions: for reaction with immobilized biotin-PEG4-14-Cl: titration
Protocol: Using an excess of substrate (about 2 μmol), the plates could bind approximately 75 μmol of biotin per well. […] Reactions between immobilized substrate and mutant DhaAs were performed using purified GST-DhaA-Flag fusions. Various concentrations of protein (100 μL; diluted in PBSTB) were incubated with immobilized substrate for various times at 25° C., and the reactions were stopped by emptying the plates and washing 4× with PBST. To detect bound DhaA, 100 μL anti-GST-HRP (Amersham) was added to each well at a 1:10,000 dilution (in PBSTB) and the plates incubated for 1 hour at 25° C.

[8] = MagneGST assay
Protocol: Bacterial colonies were picked into 96-well plates containing LB+Amp and incubated with shaking at 30° C. The cultures were diluted 1:20 into 96 well plates containing fresh TB medium, Amp and 0.1 mM IPTG. The plates were incubated at 30° C. with shaking overnight. The 96 well plates containing the IPTG induced cultures were centrifuged and supernatants removed. DhaA mutants were normalized for protein concentration by saturating protein capture on MagneGST™ PMPs. […] The plates were shaken at about 900 rpm for 10 minutes at room temperature. The particles were washed three times with PBST using a MagnaBot® 96 magnetic separation device. The wash solution was removed and MagneGST™ elution solution was added and the plates were allowed to shake at room temperature (about 900 rpm for 5 minutes). Supernatants were transferred to a new, flat bottom, transparent 96 well plate and the fluorescence intensity was measured using an excitation wavelength at 550 nm and an emission wavelength at 580 nm.
Four colonies at random of each identified hit were inoculated into 200 μL LB+Amp and grown overnight at 30° C. in flat bottom 96 well plates. Overnight cultures were diluted 1:50 into 200 μL TB ampicillin supplemented with 0.1 mM IPTG and grown overnight at 30° C. and 37° C. Induced cultures were re-assayed using the MagneGST™ based screen.

[9] = type: binding; conditions: biotin-PEG4-14-Cl substrate

Molecule | (NH4)2SO4 concentration that precipitates the protein [2] [%] | thermostability (residual activity) [5] | signal relative to the parental clones [9] | other results
B1 |  |  |  | activity with 1-Cl-butane [1]: 5 units/mg of protein
B2 | 10 |  |  | 
B3 | 10 |  |  | 
B4 | 10 |  |  | 
B5 |  |  |  | hydrolysis of FAP [3]: could not be detected
B6 |  | retained significant labeling activity following incubation as high as 50 °C |  | production of active protein (fluorescent signal after labeling) [4]: more active protein after 48 hours; half-life ([5]; at 50° C.): 58 min; in vivo labeling performance compared to parent DhaA.H272F [6]: superior performance characteristics; reaction with immobilized biotin substrates ([7]; all biotin substrates tested): reacted poorly; signal relative to the respective parents [8]: considerably higher signal
B7 |  | relatively unstable at temperatures above 30 °C | significantly improved | reaction with immobilized biotin-PEG4-14-Cl [7]: react most efficiently
B8 |  | relatively unstable at temperatures above 30 °C | significantly improved | reaction with immobilized biotin-PEG4-14-Cl [7]: react most efficiently
B9 |  | relatively unstable at temperatures above 30 °C | significantly improved | 
B10 |  | stable up to temperatures of 40 °C |  | 

Reference: patent US9416353B2, “Covalent tethering of functional groups to proteins and substrates therefor” (Promega Corporation, priority 2004, dated 2016)
